Laboratory results: doi:10.1101/2024.04.26.591406
Values joined by “and” are separate entries in the source; they are usually repeats but may differ in a detail not shown here. Identical values can stand only once.

Biological target: Vibrio His-FliFG fusion protein (FliF-FliG fusion) with the FliG-G214S mutation (Vibrio alginolyticus)
Assay: cryo-EM structure

Question: For “Vibrio His-FliFG fusion protein (FliF-FliG fusion) with the FliG-G214S mutation”, which stoichiometry N is on record?
Answer: 35 subunits and 34 subunits
